Literature values as cited in paper PMC4699190.

Target: Carbonic anhydrase II (Homo sapiens) (UniProt P00918)
Assay: solid-phase binding assay

AE1 C-terminus (from UniProt P02730)
Kd: 0.597 µM

NBCe1 C-terminus (from UniProt Q9Y6R1)
Kd: 0.322 µM

NDCBE C-terminus (from UniProt Q2Y0W8)
Kd: 0.33 µM
